Assay results as given in the supplement of paper PMC5998384.

Columns and labels:
HeLa Kyoto [1] = assay: melting temperature (median over replicates), in situ; higher = more thermally stable
HeLa Kyoto [2] = assay: solubility in G1/S (NP-40 vs SDS abundance) (log2 ratio); higher = more soluble; details: cell cycle stage: G1/S
HeLa Kyoto [3] = assay: solubility change mitosis vs G1/S (difference of NP-40 vs SDS log2 ratios) (log2 ratio difference); higher = more soluble in mitosis
HeLa Kyoto [4] = assay: thermal stability score vs G1/S (z-score of summed log2 fold changes over temperatures); higher = more thermally stable than in G1/S
[5] = cell cycle stage: early G1 (4.5 h after nocodazole release)
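For melting temperature (median over replicates), in situ in this document: HeLa Kyoto cells synchronized by double thymidine or nocodazole block, proteins quantified by TMT10plex mass spectrometry, three independent biological replicates.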
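For solubility change mitosis vs G1/S (difference of NP-40 vs SDS log2 ratios) in this document: synchronized HeLa Kyoto cells (double thymidine block for G1/S, nocodazole release for mitosis), protein amounts in NP-40 versus SDS lysates quantified by mass spectrometry, three biological replicates.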
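For solubility in G1/S (NP-40 vs SDS abundance) in this document: HeLa Kyoto cells arrested at G1/S by double thymidine block, proteins quantified by TMT10plex mass spectrometry in mild NP-40 versus SDS extracts, three biological replicates.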
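For thermal stability score vs G1/S (z-score of summed log2 fold changes over temperatures) in this document: synchronized HeLa Kyoto cells, proteins quantified by TMT10plex mass spectrometry, three biological replicates, mitosis taken 0.5 h after nocodazole release, G1/S directly after double thymidine block.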

Substance | melting temperature (HeLa Kyoto [1]; cell cycle stage: G1/S) | melting temperature (HeLa Kyoto [1]; cell cycle stage: mitosis) | solubility in G1/S (log2) (HeLa Kyoto [2]) | solubility change mitosis (log2) (HeLa Kyoto [3]) | thermal stability score (HeLa Kyoto [4]; [5]) | thermal stability score (HeLa Kyoto [4]; cell cycle stage: mitosis)
MASPPHQQLLHHHSTEVSCDSSGDSNSVRVKINPKQLSSNSHPKHCKYSISSSCSSSGDSGGVPRRVGGGGRLRRQKKLPQLFERASSRWWDPKFDSVNLEEACLERCFPQTQRRFRYALFYIGFACLLWSIYFAVHMRSRLIVMVAPALCFLLVCVGFFLFTFTKLYARHYAWTSLALTLLVFALTLAAQFQVLTPVSGRGDSSNLTATARPTDTCLSQVGSFSMCIEVLFLLYTVMHLPLYLSLCLGVAYSVLFETFGYHFRDEACFPSPGAGALHWELLSRGLLHGCIHAIGVHLFVMSQVRSRSTFLKVGQSIMHGKDLEVEKALKERMIHSVMPRIIADDLMKQGDEESENSVKRHATSSPKNRKKKSSIQKAPIAFRPFKMQQIEEVSILFADIVGFTKMSANKSAHALVGLLNDLFGRFDRLCEETKCEKISTLGDCYYCVAGCPEPRADHAYCCIEMGLGMIKAIEQFCQEKKEMVNMRVGVHTGTVLCGILGMRRFKFDVWSNDVNLANLMEQLGVAGKVHISEATAKYLDDRYEMEDGKVIERLGQSVVADQLKGLKTYLISGQRAKESRCSCAEALLSGFEVIDGSQVSSGPRGQGTASSGNVSDLAQTVKTFDNLKTCPSCGITFAPKSEAGAEGGAPQNGCQDEHKNSTKASGGPNPKTQNGLLSPPQEEKLTNSQTSLCEILQEKGRWAGVSLDQSALLPLRFKNIREKTDAHFVDVIKEDSLMKDYFFKPPINQFSLNFLDQELERSYRTSYQEEVIKNSPVKTFASPTFSSLLDVFLSTTVFLTLSTTCFLKYEAATVPPPPAALAVFSAALLLEVLSLAVSIRMVFFLEDVMACTKRLLEWIAGWLPRHCIGAILVSLPALAVYSHVTSEYETNIHFPVFTGSAALIAVVHYCNFCQLSSWMRSSLATVVGAGPLLLLYVSLCPDSSVLTSPLDAVQNFSSERNPCNSSVPRDLRRPASLIGQEVVLVFFLLLLLVWFLNREFEVSYRLHYHGDVEADLHRTKIQSMRDQADWLLRNIIPYHVAEQLKVSQTYSKNHDSGGVIFASIVNFSEFYEENYEGGKECYRVLNELIGDFDELLSKPDYSSIEKIKTIGATYMAASGLNTAQAQDGSHPQEHLQILFEFAKEMMRVVDDFNNNMLWFNFKLRVGFNHGPLTAGVIGTTKLLYDIWGDTVNIASRMDTTGVECRIQVSEESYRVLSKMGYDFDYRGTVNVKGKGQMKTYLYPKCTDHRVIPQHQLSISPDIRVQVDGSIGRSPTDEIANLVPSVQYVDKTSLGSDSSTQAKDAHLSPKRPWKEPVKAEERGRFGKAIEKDDCDETGIEEANELTKLNVSKSV [ADCY9] | 52.3 °C | 52 °C | -0.0462 | -0.172 | 0.368 | -0.65
MEQVEILRKFIQRVQAMKSPDHNGEDNFARDFMRLRRLSTKYRTEKIYPTATGEKEENVKKNRYKDILPFDHSRVKLTLKTPSQDSDYINANFIKGVYGPKAYVATQGPLANTVIDFWRMIWEYNVVIIVMACREFEMGRKKCERYWPLYGEDPITFAPFKISCEDEQARTDYFIRTLLLEFQNESRRLYQFHYVNWPDHDVPSSFDSILDMISLMRKYQEHEDVPICIHCSAGCGRTGAICAIDYTWNLLKAGKIPEEFNVFNLIQEMRTQRHSAVQTKEQYELVHRAIAQLFEKQLQLYEIHGAQKIADGVNEINTENMVSSIEPEKQDSPPPKPPRTRSCLVEGDAKEEILQPPEPHPVPPILTPSPPSAFPTVTTVWQDNDRYHPKPVLHMVSSEQHSADLNRNYSKSTELPGKNESTIEQIDKKLERNLSFEIKKVPLQEGPKSFDGNTLLNRGHAIKIKSASPCIADKISKPQELSSDLNVGDTSQNSCVDCSVTQSNKVSVTPPEESQNSDTPPRPDRLPLDEKGHVTWSFHGPENAIPIPDLSEGNSSDINYQTRKTVSLTPSPTTQVETPDLVDHDNTSPLFRTPLSFTNPLHSDDSDSDERNSDGAVTQNKTNISTASATVSAATSTESISTRKVLPMSIARHNIAGTTHSGAEKDVDVSEDSPPPLPERTPESFVLASEHNTPVRSEWSELQSQERSEQKKSEGLITSENEKCDHPAGGIHYEMCIECPPTFSDKREQISENPTEATDIGFGNRCGKPKGPRDPPSEWT [PTPN12] | 49.4 °C | 49.8 °C | 0.143 | -0.242 | -0.24 | 0.678
MEGSEPVAAHQGEEASCSSWGTGSTNKNLPIMSTASVEIDDALYSRQRYVLGDTAMQKMAKSHVFLSGMGGLGLEIAKNLVLAGIKAVTIHDTEKCQAWDLGTNFFLSEDDVVNKRNRAEAVLKHIAELNPYVHVTSSSVPFNETTDLSFLDKYQCVVLTEMKLPLQKKINDFCRSQCPPIKFISADVHGIWSRLFCDFGDEFEVLDTTGEEPKEIFISNITQANPGIVTCLENHPHKLETGQFLTFREINGMTGLNGSIQQITVISPFSFSIGDTTELEPYLHGGIAVQVKTPKTVFFESLERQLKHPKCLIVDFSNPEAPLEIHTAMLALDQFQEKYSRKPNVGCQQDSEELLKLATSISETLEEKPDVNADIVHWLSWTAQGFLSPLAAAVGGVASQEVLKAVTGKFSPLCQWLYLEAADIVESLGKPECEEFLPRGDRYDALRACIGDTLCQKLQNLNIFLVGCGAIGCEMLKNFALLGVGTSKEKGMITVTDPDLIEKSNLNRQFLFRPHHIQKPKSYTAADATLKINSQIKIDAHLNKVCPTTETIYNDEFYTKQDVIITALDNVEARRYVDSRCLANLRPLLDSGTMGTKGHTEVIVPHLTESYNSHRDPPEEEIPFCTLKSFPAAIEHTIQWARDKFESSFSHKPSLFNKFWQTYSSAEEVLQKIQSGHSLEGCFQVIKLLSRRPRNWSQCVELARLKFEKYFNHKALQLLHCFPLDIRLKDGSLFWQSPKRPPSPIKFDLNEPLHLSFLQNAAKLYATVYCIPFAEEDLSADALLNILSEVKIQEFKPSNKVVQTDETARKPDHVPISSEDERNAIFQLEKAILSNEATKSDLQMAVLSFEKDDDHNGHIDFITAASNLRAKMYSIEPADRFKTKRIAGKIIPAIATTTATVSGLVALEMIKVTGGYPFEAYKNCFLNLAIPIVVFTETTEVRKTKIRNGISFTIWDRWTVHGKEDFTLLDFINAVKEKYGIEPTMVVQGVKMLYVPVMPGHAKRLKLTMHKLVKPTTEKKYVDLTVSFAPDIDGDEDLPGPPVRYYFSHDTD [UBA6] | 50.7 °C | 49.8 °C | 0.00865 | -0.192 | -0.786 | -0.409
PCNT | 50.8 °C | 52.9 °C | -0.221 | -0.162 | 2.3 | 2.45
MAQLGKLLKEQKYDRQLRLWGDHGQEALESAHVCLINATATGTEILKNLVLPGIGSFTIIDGNQVSGEDAGNNFFLQRSSIGKNRAEAAMEFLQELNSDVSGSFVEESPENLLDNDPSFFCRFTVVVATQLPESTSLRLADVLWNSQIPLLICRTYGLVGYMRIIIKEHPVIESHPDNALEDLRLDKPFPELREHFQSYDLDHMEKKDHSHTPWIVIIAKYLAQWYSETNGRIPKTYKEKEDFRDLIRQGILKNENGAPEDEENFEEAIKNVNTALNTTQIPSSIEDIFNDDRCINITKQTPSFWILARALKEFVAKEGQGNLPVRGTIPDMIADSGKYIKLQNVYREKAKKDAAAVGNHVAKLLQSIGQAPESISEKELKLLCSNSAFLRVVRCRSLAEEYGLDTINKDEIISSMDNPDNEIVLYLMLRAVDRFHKQQGRYPGVSNYQVEEDIGKLKSCLTGFLQEYGLSVMVKDDYVHEFCRYGAAEPHTIAAFLGGAAAQEVIKIITKQFVIFNNTYIYSGMSQTSATFQL [NAE1] | 51.5 °C | 51.3 °C | 0.0839 | -0.191 | 0.0621 | 0.146
MQAGKPILYSYFRSSCSWRVRIALALKGIDYKTVPINLIKDRGQQFSKDFQALNPMKQVPTLKIDGITIHQSLAIIEYLEEMRPTPRLLPQDPKKRASVRMISDLIAGGIQPLQNLSVLKQVGEEMQLTWAQNAITCGFNALEQILQSTAGIYCVGDEVTMADLCLVPQVANAERFKVDLTPYPTISSINKRLLVLEAFQVSHPCRQPDTPTELRA [GSTZ1] | 53.5 °C | 52.9 °C | 0.447 | 0.0886 | -2.37 | -2.09
MVRPVRHKKPVNYSQFDHSDSDDDFVSATVPLNKKSRTAPKELKQDKPKPNLNNLRKEEIPVQEKTPKKRLPEGTFSIPASAVPCTKMALDDKLYQRDLEVALALSVKELPTVTTNVQNSQDKSIEKHGSSKIETMNKSPHISNCSVASDYLDLDKITVEDDVGGVQGKRKAASKAAAQQRKILLEGSDGDSANDTEPDFAPGEDSEDDSDFCESEDNDEDFSMRKSKVKEIKKKEVKVKSPVEKKEKKSKSKCNALVTSVDSAPAAVKSESQSLPKKVSLSSDTTRKPLEIRSPSAESKKPKWVPPAASGGSRSSSSPLVVVSVKSPNQSLRLGLSRLARVKPLHPNATST [RAD51AP1] | 53.8 °C | 58 °C | 0.0638 | 0.203 | 1.26 | 7.25
